The record followed here is patent US20030148958A1 (PROCTER AND GAMBLE, published 2003).

Experiment [1] deals with T1, corticotropin releasing factor 2 receptor.
T1 sequence (Q13324 whole entry, species assumed, looked up): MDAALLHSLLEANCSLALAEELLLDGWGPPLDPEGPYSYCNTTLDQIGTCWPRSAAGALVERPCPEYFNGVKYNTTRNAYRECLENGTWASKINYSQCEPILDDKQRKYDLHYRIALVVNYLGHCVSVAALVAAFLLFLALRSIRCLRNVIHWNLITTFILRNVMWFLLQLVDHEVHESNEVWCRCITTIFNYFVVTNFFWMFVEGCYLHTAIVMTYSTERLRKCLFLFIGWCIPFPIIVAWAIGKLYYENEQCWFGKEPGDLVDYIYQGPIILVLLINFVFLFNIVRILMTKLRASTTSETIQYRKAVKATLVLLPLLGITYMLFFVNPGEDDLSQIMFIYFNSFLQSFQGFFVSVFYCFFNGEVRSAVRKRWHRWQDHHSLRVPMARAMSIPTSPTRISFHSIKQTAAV
Description: cell-based or functional assay.

Experiment [2] has as its target corticotropin releasing factor 1 receptor. Description: cell-based or functional assay.

Ends that are not written are not given here.
Throughout, for CRF1R Emax: reference of the scale not given here.
Throughout, for CRF2R Emax: reference of the scale not given here.

For IVLSLDVPIGLLQILLEMARAEQLAQQAHSNRKLMEII-NH2 [SEQ ID NO 164], in experiment [1], the “CRF2R EC50” value is 2.24 nM and the “CRF2R Emax” value worked out at 92%. In addition, in experiment [2], the “CRF1R EC50” value is more than 100 nM and the “CRF1R Emax” value was 26%.

As to SQEPPISLDLTFHLLREVLEQARARAAREQATTNARILARV-NH2 [SEQ ID NO 157], in experiment [1], the “CRF2R EC50” value was 42 nM and the “CRF2R Emax” value is 60.6%. In experiment [2], the “CRF1R EC50” value amounted to 100 nM and the “CRF1R Emax” value stood at 91%.

In the case of IVLSLDVPIGLLQILLEQTKADQLAQQAHSNRKLLDIA-NH2 [SEQ ID NO 159], in experiment [1], the “CRF2R EC50” value turned out to be 90.8 nM and the “CRF2R Emax” value was determined as 62%. In addition, in experiment [2], the “CRF1R EC50” value is more than 100 nM and the “CRF1R Emax” value stood at 9%.

As for ZGPPISIDLPFQLLRKMIEIEKQEKEKQQAAANRLLLDTV (C-terminal amide) [SEQ ID NO 15], in experiment [1], the “CRF2R EC50” value was found to be 6.56 nM and the “CRF2R Emax” value came out at 97%. In experiment [2], the “CRF1R EC50” value was 85.3 nM and the “CRF1R Emax” value came out at 86%.

As to ZGPPISIDLPFQLLRKMIEIEKQEKEKQQATTNRLLLATV (C-terminal amide) [SEQ ID NO 17], in experiment [1], the “CRF2R EC50” value was 10.2 nM and the “CRF2R Emax” value came out at 96%. Also, in experiment [2], the “CRF1R EC50” value stood at 260 nM and the “CRF1R Emax” value turned out to be 98%.

As to ZGPPISIDLPFQLLRKMIEIEKQEKEKQQATTNRLLLDTV (C-terminal amide) [SEQ ID NO 16], in experiment [1], the “CRF2R EC50” value was 7.88 nM and the “CRF2R Emax” value amounted to 86%. Further, in experiment [2], the “CRF1R EC50” value amounted to 136 nM and the “CRF1R Emax” value was 98%.

On to IVLSLDVPIGLLQILIEIEKQEKEKQQAANNARILARV-NH2 [SEQ ID NO 166], for which, in experiment [1], the “CRF2R EC50” value is 3.7 nM and the “CRF2R Emax” value is 99%. Further, in experiment [2], the “CRF1R EC50” value came out at 438 nM and the “CRF1R Emax” value stood at 95%.

Consider IVLSLDVPIGLLQEVLEMARAEQLAQQAHSNRKLMEII-NH2 [SEQ ID NO 165], for which, in experiment [1], the “CRF2R EC50” value was more than 100 nM and the “CRF2R Emax” value was found to be 75%. In experiment [2], the “CRF1R EC50” value was more than 100 nM and the “CRF1R Emax” value was 19%.

On to IVLSLDVPIGLLQILIEIEKQEKEKQQAATTNARILARV-NH2 [SEQ ID NO 168], for which, in experiment [1], the “CRF2R EC50” value was 4.9 nM and the “CRF2R Emax” value stood at 75%. Besides, in experiment [2], the “CRF1R EC50” value worked out at 1000 nM and the “CRF1R Emax” value is 52%.

As to ZGIVLSLDVPIGLLRKMIEIEKQEKEKQQAANNRLLLDTI (C-terminal amide) [SEQ ID NO 153], in experiment [1], the “CRF2R EC50” value was 9.28 nM and the “CRF2R Emax” value was determined as 97%. Besides, in experiment [2], the “CRF1R EC50” value was more than 100 nM and the “CRF1R Emax” value worked out at 7%.

Regarding IVLSLDVPIGLLQILIEIEKQEKEKQQAANNRLLLDTI-NH2 [SEQ ID NO 154], in experiment [1], the “CRF2R EC50” value was determined as 10.3 nM and the “CRF2R Emax” value was 100%. Moreover, in experiment [2], the “CRF1R EC50” value was more than 100 nM and the “CRF1R Emax” value turned out to be 7%.

Turning to ZGPPISIDLPLELLRKMIEIEKQEKEKQQATTNARILARV (C-terminal amide) [SEQ ID NO 143], in experiment [1], the “CRF2R EC50” value came out at 11.1 nM and the “CRF2R Emax” value is 85.5%. For the same molecule, in experiment [2], the “CRF1R EC50” value amounted to 232 nM and the “CRF1R Emax” value turned out to be 100%.

As for ZGPPISIDLPFQLLRKMIEIEKQEKEKQQATTNARILARV (C-terminal amide) [SEQ ID NO 148], in experiment [1], the “CRF2R EC50” value came out at 9.45 nM and the “CRF2R Emax” value stood at 51.5%. Also, in experiment [2], the “CRF1R EC50” value amounted to 295 nM and the “CRF1R Emax” value was determined as 100%.

For the molecule ZGPPISIDLPFYLLRKMIEIEKQEKEKQQATTNARILARV (C-terminal amide) [SEQ ID NO 147], in experiment [1], the “CRF2R EC50” value turned out to be 6.75 nM and the “CRF2R Emax” value was found to be 94%. Besides, in experiment [2], the “CRF1R EC50” value was found to be 102 nM and the “CRF1R Emax” value was determined as 96%.

With ZGPPISIDVPTYLLRILIEIEKQEKEKQQATTNARILARV (C-terminal amide) [SEQ ID NO 169], in experiment [1], the “CRF2R EC50” value was determined as 17.8 nM and the “CRF2R Emax” value was 93%. Moreover, in experiment [2], the “CRF1R EC50” value turned out to be 978 nM and the “CRF1R Emax” value turned out to be 26%.

As to ZGPPISIDLPFHLLRKMIEIEKQEKEKQQATTNARILARV (C-terminal amide) [SEQ ID NO 146], in experiment [1], the “CRF2R EC50” value stood at 8.2 nM and the “CRF2R Emax” value amounted to 84.5%. In experiment [2], the “CRF1R EC50” value was determined as 103 nM and the “CRF1R Emax” value amounted to 100%.

Regarding ZGPPISIDLPIYLLRKMIEIEKQEKEKQQATTNARILARV (C-terminal amide) [SEQ ID NO 149], in experiment [1], the “CRF2R EC50” value was determined as 26.2 nM and the “CRF2R Emax” value was determined as 95.5%. Moreover, in experiment [2], the “CRF1R EC50” value amounted to 1000 nM and the “CRF1R Emax” value is 40.7%.

Turning to ZGPPISIDLPLHLLRKMIEIEKQEKEKQQATTNARILARV (C-terminal amide) [SEQ ID NO 145], in experiment [1], the “CRF2R EC50” value worked out at 7.8 nM and the “CRF2R Emax” value came out at 69%. Besides, in experiment [2], the “CRF1R EC50” value worked out at 196 nM and the “CRF1R Emax” value was 91.3%.

ZGPPISIDLPLQLLRKMIEIEKQEKEKQQATTNARILARV (C-terminal amide) [SEQ ID NO 144]: in experiment [1], the “CRF2R EC50” value worked out at 9.16 nM and the “CRF2R Emax” value turned out to be 85.5%. Also, in experiment [2], the “CRF1R EC50” value stood at 567 nM and the “CRF1R Emax” value was 100%.

As for ZGPPISIDLPTYLLRKMIEIEKQEKEKQQATTNARILARV (C-terminal amide) [SEQ ID NO 151], in experiment [1], the “CRF2R EC50” value worked out at 36.8 nM and the “CRF2R Emax” value came out at 96%. Also, in experiment [2], the “CRF1R EC50” value came to 1000 nM and the “CRF1R Emax” value amounted to 19.9%.

On to ZGPPISIDLPIQLLRKMIEIEKQEKEKQQATTNARILARV (C-terminal amide) [SEQ ID NO 150], for which, in experiment [1], the “CRF2R EC50” value worked out at 34.6 nM and the “CRF2R Emax” value amounted to 70.5%. Also, in experiment [2], the “CRF1R EC50” value was 1000 nM and the “CRF1R Emax” value worked out at 5.7%.

IVLSLDVPIGLLQILLEQARARAAREQATSNRKLMEII-NH2 [SEQ ID NO 163]: in experiment [1], the “CRF2R EC50” value amounted to 4.49 nM and the “CRF2R Emax” value amounted to 96%. Further, in experiment [2], the “CRF1R EC50” value is more than 100 nM and the “CRF1R Emax” value was 13%.

Take ZGPPISIDLSLELLRKMIEQARARAAREQATTNARILARV (C-terminal amide) [SEQ ID NO 156]: in experiment [1], the “CRF2R EC50” value was 9.29 nM and the “CRF2R Emax” value was 79%. Further, in experiment [2], the “CRF1R EC50” value was more than 100 nM and the “CRF1R Emax” value worked out at 6%.

Take IVLSLDVPIGLLQILLEMTKADQLAQQAHSNRKLLDIA-NH2 [SEQ ID NO 155]: in experiment [1], the “CRF2R EC50” value was found to be 20.6 nM and the “CRF2R Emax” value amounted to 94%. Also, in experiment [2], the “CRF1R EC50” value was 40.6 nM and the “CRF1R Emax” value is 16%.

For the molecule SEEPPISLDVPIGLLQEVLEMARAEQLAQQAHSNRKLMEII-NH2 [SEQ ID NO 162], in experiment [1], the “CRF2R EC50” value was more than 100 nM and the “CRF2R Emax” value stood at 7%. Besides, in experiment [2], the “CRF1R EC50” value is more than 100 nM and the “CRF1R Emax” value is 11%.

As for SEEPPISLDLTFHLLREVLEMARAEQLAQQAHTNARILARV-NH2 [SEQ ID NO 161], in experiment [1], the “CRF2R EC50” value was more than 100 nM and the “CRF2R Emax” value was 88%. Also, in experiment [2], the “CRF1R EC50” value was more than 100 nM and the “CRF1R Emax” value came to 77%.

For IVLSLDVPIGLLQTLLELARTQSQRERAEQNRIIFDSV-NH2 [SEQ ID NO 160], in experiment [1], the “CRF2R EC50” value was determined as 9.15 nM and the “CRF2R Emax” value was 87%. Moreover, in experiment [2], the “CRF1R EC50” value was more than 100 nM and the “CRF1R Emax” value was found to be 10%.

In the case of IVLSLDVPIGLLQILLEQEKQEKEKQQATTNARILARV-NH2 [SEQ ID NO 167], in experiment [1], the “CRF2R EC50” value was 13 nM and the “CRF2R Emax” value was 100%. Besides, in experiment [2], the “CRF1R EC50” value was determined as 1000 nM and the “CRF1R Emax” value was determined as 15%.

As for IVLSLDVPIGLLQILLEIEKQEKEKQQAANNRLLLDTI-NH2 [SEQ ID NO 158], in experiment [1], the “CRF2R EC50” value turned out to be 6.37 nM and the “CRF2R Emax” value amounted to 89%. In experiment [2], the “CRF1R EC50” value is more than 100 nM and the “CRF1R Emax” value turned out to be 15%.

Turning to SQEIVLSLDVPIGLLREVLEMTKADQLAQQAHSNRKLLDIA-NH2 [SEQ ID NO 152], in experiment [1], the “CRF2R EC50” value is more than 100 nM and the “CRF2R Emax” value was 19%. Further, in experiment [2], the “CRF1R EC50” value was more than 100 nM and the “CRF1R Emax” value is 4%.
